Laboratory results as given in US20240116984A1, “MODIFIED PEPTIDES FOR THE INHIBITION OF ABNORMAL TAU ACCUMULATION” (University of Notre Dame du Lac, priority 2021, published 2024).

Molecular target: tau-RD (P301L/V337M)-YFP, stably expressed in HEK293 biosensor cells (UniProt P10636)
Assay: cell-based or functional assay

Chain of tau-RD (P301L/V337M)-YFP, stably expressed in HEK293 biosensor cells (P10636 561-689 P618L/V654M): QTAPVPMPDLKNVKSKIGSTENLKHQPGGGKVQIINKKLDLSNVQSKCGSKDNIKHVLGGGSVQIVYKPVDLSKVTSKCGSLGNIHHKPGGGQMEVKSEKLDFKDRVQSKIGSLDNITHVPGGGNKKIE

“Human tauP301L (0N4R), recombinant, N-terminal His tag (from UniProt P10636 2-758)” gave an aggregate-containing HEK293 biosensor cells (punctate fluorescence after 48 h) on treatment with preformed heparin-induced tauP301L fibrils of 38%.
